Consider one protein from PMC7592630 (FASEB journal : official publication of the Federation of …, 2019).

The data set concerns the molecule itself. Nature of the data set: sucrose gradient velocity sedimentation.

B1: C213Y Prph2 (natural protein, UniProt P15499 1-346, looked up)
chain: MALLKVKFDQKKRVKLAQGLWLMNWLSVLAGIVLFSLGLFLKIELRKRSEVMNNSESHFVPNSLIGVGVLSCVFNSLAGKICYDALDPAKYAKWKPWLKPYLAVCIFFNVILFLVALCCFLLRGSLESTLAYGLKNGMKYYRDTDTPGRCFMKKTIDMLQIEFKCCGNNGFRDWFEIQWISNRYLDFSSKEVKDRIKSNVDGRYLVDGVPFSYCNPSSPRPCIQYQLTNNSAHYSYDHQTEELNLWLRGCRAALLNYYSSLMNSMGVVTLLVWLFEVSITAGLRYLHTALESVSNPEDPECESEGWLLEKSVPETWKAFLESFKKLGKSNQVEAEGADAGPAPEAG
modifications: N-linked glycan (the paper shows that the mutant is glycosylated; Asn229 is the site in Prph2)
In the case of B1, the stoichiometry N – broadly, the number of molecules, sites or subunits per partner or assembly – is 4.
